Assay [1] addresses T1, biotinylated Bovine Serum Albumine (bovine, UniProt P02769 25-607).
T1 construct: also called BSA; biotinylated-BSA
In words: flow cytometry; biotinylated BSA on HEK 293T cells transfected with DC-SIGN, PE-streptavidin.

Assay [2] deals with T2, HIV-1 gp120 (MN isolate) (HIV-1 (MN isolate), UniProt P05877 32-513, biotinylated when used as the labelled ligand on cells; unlabelled as competitor and on the SPR chip).
T2 construct: domain: gp120; Unlabelled gp120 came from the NIBSC repository; also called biotinylated HIV-1 gp120; HIV-1 Env glycoprotein 120
Put plainly: flow cytometry; biotinylated protein on transfected HEK 293T cells, PE-streptavidin.

In assay [3] the target is T1, biotinylated Bovine Serum Albumine. Put plainly: flow cytometry; biotinylated BSA on HEK 293T cells transfected with DC-SIGNR, PE-streptavidin.
Assay [4] has as its target T2, HIV-1 gp120 (MN isolate). Put plainly: SPR (Biacore); DC-SIGN CRD injected over immobilised HIV-1 gp120; from koff/kon.
The target in assay [5] is T3, HSV-1 glycoprotein B, soluble (HSV-1, UniProt P10211 31-730).
T3 construct: also called HSV-1 gB; gB HSV
Put plainly: SPR; DC-SIGN CRD injected over immobilised HSV-1 gB.

In assay [6] the target is T2, HIV-1 gp120 (MN isolate). In words: SPR (Biacore); DC-SIGN CRD injected over immobilised HIV-1 gp120; Langmuir fit, average.

T1 sequence (P02769 25-607 limits assumed): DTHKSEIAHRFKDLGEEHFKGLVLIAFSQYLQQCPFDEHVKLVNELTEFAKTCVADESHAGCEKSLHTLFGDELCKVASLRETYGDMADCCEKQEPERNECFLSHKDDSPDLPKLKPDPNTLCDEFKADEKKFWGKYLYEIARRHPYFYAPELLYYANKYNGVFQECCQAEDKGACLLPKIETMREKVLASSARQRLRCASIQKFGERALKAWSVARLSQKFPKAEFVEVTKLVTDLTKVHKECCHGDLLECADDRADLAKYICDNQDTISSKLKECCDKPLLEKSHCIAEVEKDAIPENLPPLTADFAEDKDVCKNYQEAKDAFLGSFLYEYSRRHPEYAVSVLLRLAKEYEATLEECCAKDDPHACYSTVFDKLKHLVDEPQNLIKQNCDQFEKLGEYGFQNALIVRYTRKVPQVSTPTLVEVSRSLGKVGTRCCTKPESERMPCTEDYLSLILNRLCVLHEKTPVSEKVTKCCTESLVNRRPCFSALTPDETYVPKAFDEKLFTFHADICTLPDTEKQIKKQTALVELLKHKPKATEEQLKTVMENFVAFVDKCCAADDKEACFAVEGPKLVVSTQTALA

B1: human DC-SIGN (DC-Specific ICAM-Grabbing Nonintegrin) expressed at the cell surface (receptor, UniProt Q9NNX6 1-404, looked up)
chain: MSDSKEPRLQQLGLLEEEQLRGLGFRQTRGYKSLAGCLGHGPLVLQLLSFTLLAGLLVQVSKVPSSISQEQSRQDAIYQNLTQLKAAVGELSEKSKLQEIYQELTQLKAAVGELPEKSKLQEIYQELTRLKAAVGELPEKSKLQEIYQELTWLKAAVGELPEKSKMQEIYQELTRLKAAVGELPEKSKQQEIYQELTRLKAAVGELPEKSKQQEIYQELTRLKAAVGELPEKSKQQEIYQELTQLKAAVERLCHPCPWEWTFFQGNCYFMSNSQRNWHDSITACKEVGAQLVVIKSAEEQNFLQLQSSRSNRFTWMGLSDLNQEGTWQWVDGSPLLPSFKQYWNRGEPNNVGEEDCAEFSGNGWNDDKCNLAKFWICKKSAASCSRDEEQFLSPAPATPNPPPA
notes: whole, on cells; On transduced THP-1, HeLa and HEK 293T cells, and naturally on monocyte-derived dendritic cells; For HEK 293T the cDNA was in pcDNA3 myc-His (version A); also called CD209; DC-SIGN^+ THP-1 cells
For B1, the binding result in assay [1] is “no binding”; with HIV-1 gp120 (MN isolate) [2] it was “binds”.

B2: DC-SIGNR expressed on transiently transfected HEK 293T cells (receptor, human, UniProt Q9H2X3 1-399, looked up)
chain: MSDSKEPRVQQLGLLEEDPTTSGIRLFPRDFQFQQIHGHKSSTGCLGHGALVLQLLSFMLLAGVLVAILVQVSKVPSSLSQEQSEQDAIYQNLTQLKAAVGELSEKSKLQEIYQELTQLKAAVGELPEKSKLQEIYQELTRLKAAVGELPEKSKLQEIYQELTRLKAAVGELPEKSKLQEIYQELTRLKAAVGELPEKSKLQEIYQELTELKAAVGELPEKSKLQEIYQELTQLKAAVGELPDQSKQQQIYQELTDLKTAFERLCRHCPKDWTFFQGNCYFMSNSQRNWHDSVTACQEVRAQLVVIKTAEEQNFLQLQTSRSNRFSWMGLSDLNQEGTWQWVDGSPLSPSFQRYWNSGEPNNSGNEDCAEFSGSGWNDNRCDVDNYWICKKPAACFRDE
notes: whole, on cells
Consider B2, for which the figures for the binding result (with HIV-1 gp120 (MN isolate) [2]; in assay [3]) were “binds” and “no binding”, respectively.

B3: recombinant soluble CRD of DC-SIGN (amino acids 254-404) (receptor)
chain: HPCPWEWTFFQGNCYFMSNSQRNWHDSITACKEVGAQLVVIKSAEEQNFLQLQSSRSNRFTWMGLSDLNQEGTWQWVDGSPLLPSFKQYWNRGEPNNVGEEDCAEFSGNGWNDDKCNLAKFWICKKSAASCSRDEEQFLSPAPATPNPPPA
notes: range 254-404; Purified on Ni-NTA and mannose-agarose; also called DC-SIGN CRD; recombinant soluble CRD domain of DC-SIGN
In the assay with HIV-1 gp120 (MN isolate) [4], B3 registered a Kd of 300 nM. Besides, the binding result in assay [5] is on record as “no binding (tested: 0.13 to 1 µM)”. Further, in the assay with HIV-1 gp120 (MN isolate) [6], the koff came to 0.00101 s⁻¹ and the association rate constant (kon) was determined as 3330 M⁻¹ s⁻¹.

The values above are taken from patent publication US20040141968A1 (published 2004).
